# Test results from the RNAGym collection of RNA variant scans (doi:10.7554/elife.90254).
# B1: LINE1-full (parent)
# chain: UACGUAGGUGGUUUUCCCCUGAUAGUGCUAAGGGGGCCUGGAAGUUUGGACUGGGCAGAGCUCAACACAGCGUGGCAAAGUGGCUGUGGCUAGACUGCCUCUCUGGAUUCCUCGUCACUCAGCAGGGCAUCUCUGAGAGAAAUGCC
# Variants of: B1
# Assay: self-cleavage, relative activity (ratio to wild type); higher = more cleavage; in vitro, sequencing; the parent is a self-cleaving ribozyme
row,Variant,self-cleavage
1,UACGUAGGUGGUUUUCCCCUGAUAGUGCUAAGGGGGCCUGGAAGUUUGGACUGGGCAGGGCUCAACACAGCGUGGCAAAGUGGCUGUGGCUAGACUGCCUCUCAGGAUUCCUCGUCACUCAGCAGGGCAUCUCUGAGAGAAAUGCC,0.14
2,UACGUAGGUGGUUUUCCCCUGAUAGUGCUAAGGGGGCCUGGAAGUUUGGACUGGGCAGGGCUCAACACAGCGUGGCAAAGUGGCUGUGGCCAGACUGCCUCUCUGGAUUCCUCGUCACUCAGCAGGGCAUCUCUGAGAGAAAUGCC,0.11
3,UACGUAGGUGGUUUUCCCCUGAUAGUGCUAAGGGGGCCUGGAAGUUUGGACUGGGCAGGGCUCAACACAGCGUGGCAAAGUGGCUGUGGCAAGACUGCCUCUCUGGAUUCCUCGUCACUCAGCAGGGCAUCUCUGAGAGAAAUGCC,0.09
4,UACGUAGGUGGUUUUCCCCUGAUAGUGCUAAGGGGGCCUGGAAGUUUGGACUGGGCAGGGCUCAACACAGCGUGGCAAAGUGGCUGUGGCUAGACUGCCUCUCUGGAUUCCUCGUCACUCAGCAGGACAUCUCUGAGAGAAAUGCC,0.07
5,UACGUAGGUGGUUUUCCCCUGAUAGUGCUAAGGGGGCCUGGAAGUUUGGACUGGGCAGGGCUCAACACAGCGUGGCAAAGUGGCUGUGGCUAUACUGCCUCUCUGGAUUCCUCGUCACUCAGCAGGGCAUCUCUGAGAGAAAUGCC,0.03
6,UACGUAGGUGGUUUUCCCCUGAUAGUGCUAAGGGGGCCUGGAAGUUUGGACUGGGCAGGGCUCAACACAGCGCGGCAAAGUGGCUGUGGCUAGACUGCCUCUCUGGAUUCCUCGUCACUCAGCAGGGCAUCUCUGAGAGAAAUGCC,0.07
7,UACGUAGGUGGUUUUCCCCUGAUAGUGCUAAGGGGGCCUGGAAGUUUGGACUGGGCAGGGCUCAACACAGCGUGGCAAAGUGGCUGUGGCUAGACUGCCUCUCUGGAUUCCUCGUCACUCAGCAGGGCAUCACUGAGAGAAAUGCC,0.06
8,UACGUAGGUGGUUUUCCCCUGAUAGUGCUAAGGGGGCCUGGAAGUUUGGACUGGGCAGGGCUCAACACAGCGUGGCAAAGUGGCUGUGGCUAGACUGCCUCUCUGGAUUCCUCGUCACUCAGCAGAGCAUCUCUGAGAGAAAUGCC,0.12
9,UACGUAGGUGGUUUUCCCCUGAUAGUGCUAAGGGGGCCUGGAAGUUUGGACUGGGCAGGGCUCAACACAGCGUGGCAAAGUGGCUGUGGCUAGACUGCCUCUCUGGAUUCCUCGUCACUCAGCAGGGCAUCUCUGAGAGAAAAGCC,0.08
10,UACGUAGGUGGUUUUCCCCUGAUAGUGCUAAGGGGGCCUGGAAGUUUGGACUGGGCAGGGCUCAACACAGCGUGGCAAAGUGGCUGUGGCUAGACUGCCUCUCUGGAUCCCUCGUCACUCAGCAGGGCAUCUCUGAGAGAAAUGCC,0.17
11,UACGUAGGUGGUUUUCCCCUGAUAGUGCUAAGGGGGCCUGGAAGUUUGGACUGGGCAGGGCUCAACACAGCGUGGCAAAGUGGCUGUGGCUAGACUGCCUCUCUGGAUUCCUCGUCACUCAGCAGGGCAUCUCAGAGAGAAAUGCC,0.08
12,UACGUAGGUGGUUUUCCCCUGAUAGUGCUAAGGGGGCCUGGAAGUUUGGACUGGGCAGGGCUCAACACAGCGUGGCAAAGAGGCUGUGGCUAGACUGCCUCUCUGGAUUCCUCGUCACUCAGCAGGGCAUCUCUGAGAGAAAUGCC,0.1
13,UACGUAGGUGGUUUUCCCCUGAUAGUGCUAAGGGGGCCUGGAAGUUUGGACUGGGCAGGGCUCAACACAGCGUGGCAAAGCGGCUGUGGCUAGACUGCCUCUCUGGAUUCCUCGUCACUCAGCAGGGCAUCUCUGAGAGAAAUGCC,0.09
14,UACGUAGGUGGUUUUCCCCUGAUAGUGCUAAGGGGGCCUGGAAGUUUGGACUGGGCAGGGCUCAACACAGCGUGGCAAAGUGGCUGUGGCUAGACUGCCUCUCUGGAUUCCUCGUCACUCAGCAGGGCAUCUCUGAGAGAAAUACC,0.12
15,UACGUAGGUGGUUUUCCCCUGAUAGUGCUAAGGGGGCCUGGAAGUUUGGACUGGGCAGGGCUCAACACAGCGUGGCAAAGUGGCUGUGGCUAGACAGCCUCUCUGGAUUCCUCGUCACUCAGCAGGGCAUCUCUGAGAGAAAUGCC,0.07
16,UACGUAGGUGGUUUUCCCCUGAUAGUGCUAAGGGGGCCUGGAAGUUUGGACUGGGCAGGGCUCAACACAGCGUGGCAAAGUGGCUGUGGCUAGACUGCCUCUCUGGAUUCCUCCUCACUCAGCAGGGCAUCUCUGAGAGAAAUGCC,0.03
17,UACGUAGGUGGUUUUCCCCUGAUAGUGCUAAGGGGGCCUGGAAGUUUGGACUGGGCAGGGCUCAACACAGCGUGGCAAAGUGGCUGUGGCUAGACUGCCUCUCUGGAUUCCCCGUCACUCAGCAGGGCAUCUCUGAGAGAAAUGCC,0.13
18,UACGUAGGUGGUUUUCCCCUGAUAGUGCUAAGGGGGCCUGGAAGUUUGGACUGGGCAGGGCUCAACACAGCGUGGCAAAGUGGCUGUGGCUAGACUGCCUCUCUGGAUUCCACGUCACUCAGCAGGGCAUCUCUGAGAGAAAUGCC,0.09
19,UACGUAGGUGGUUUUCCCCUGAUAGUGCUAAGGGGGCCUGGAAGUUUGGACUGGGCAGGGCUCAACACAGCGUGGCAAAGUGGCUGUGUCUAGACUGCCUCUCUGGAUUCCUCGUCACUCAGCAGGGCAUCUCUGAGAGAAAUGCC,0.02
20,UACGUAGGUGGUUUUCCCCUGAUAGUGCUAAGGGGGCCUGGAAGUUUGGACUGGGCAGUGCUCGACACAGCGUGGCAAAGUGGCUGUGGCUAGACUGCCUCUCUGGAUUCCUCGUCACUCAGCAGGGCAUCUCUGAGAGAAAUGCC,0.09
